What was measured:
[1] = molecular target: His-tagged FP8_v1 (HIV-1); test: BLI
[2] = molecular target: His-tagged FP8_v1 (HIV-1); test: SPR
[3] = molecular target: BG505 DS-SOSIP ∆88 Env trimer (glycan N88 removed) (HIV-1 strain BG505); test: SPR

B1: VRC34-pI3 P33A (heavy chain) mutant antibody (antibody, V domains shown)
VH: QEVLVQSGAEVKKPGASVKVSCKAFGYTFTGNAMHWVRQAPGQGLEWMGWINPHSGDTTTAQKFQGRVYMTRDKSINTAYLDVTRLTSDDTAIYYCARDKYYGNEAVGMDVWGQGTTVTVSS
VL: DIQLTQSPSFLSASVGDRVTITCRASQGISNELAWYQQKPGKAPNLLIYYASTLQSGVPSRFSASGSGTHFTLTISSLQPEDFATYFCQHMSSYPLTFGGGTKVEIK
- Kd [1]: 60 nM

B2: VRC34.07 Fab (Fab, V domains shown)
VH: SQYLAQPGAEVAKPGASVKVSCKVHGDNFRGHYLHWVRQAPGQGLQWIGGINPFSGEAAYGKRFEGRLRLTRDTSVNTAYMELAKLTPDDTAVYFCARDKTYNDEFTAMDIWGHGTTVIVSS
VL: DIKLTQSPAFLSASVGERVTFTCRASQDISHDLVWFQQKAGRAPSLLMFYGSTLERGVPPRFSGRRSGTEFTVTIDSLQPEDVGTYYCQQLSAFPLTFGGGTTVDIK
- Kd [2]: 0.2 nM

B3: VRC34.05 Fab (Fab, V domains shown)
VH: SQYLAQSGSEVKKPGASVKVSCRLHGDKFGAHYIHWVRQAPGQGLEWLGFFHPGTGDAVSAQKFQGRISLTRDTSISTGYLEVRRLSSDDTAVYYCARDKTYSDEATGMDIWGQGTTVIVSS
VL: DIKLTQSPAFLSASVGERVTFTCRASQDIRHELVWYQQKPGRGPKLLIYYGSTLEGGVPSRFSGRRSGTEFTVTISSLQPEDVGTYYCQQLNSFPLTFGGGTTVDIR
- fold decrease of affinity against the BG505 trimer with glycan N88 [3]: 100 fold
